For orientation: Kd means the free concentration of one partner at which half of the binding sites on the other are occupied at equilibrium, for simple one-to-one binding. A word on the stoichiometry N: it is a count of units in the complex or per binding partner.

The values below come from paper PMC9144871 (International Journal of Molecular Sciences, 2022).

Data set [1] deals with the molecule itself. The data set can be described thus: mass spectrometry; S-plug3 checked for its dimeric state by mass spectrometry; conditions not given.
Data set [2] addresses T1, SARS-CoV-2 spike RBD-His (SARS-CoV-2, UniProt P0DTC2). Briefly: SPR. The note with it: both partners purified.
Data set [3] deals with the molecule itself. The data set can be described thus: SEC-MALS; analytical SEC-LS: Superdex 75 increase 10/30 with miniDAWN TREOS and refractive index detector; about 1.0 mg protein loaded; 50 mM Tris-HCl, 150 mM NaCl, 2.5% glycerol, pH 7.8; 0.5 mL/min. (Size exclusion chromatography separates by hydrodynamic size, large species first.)
Data set [4] concerns the target T1, SARS-CoV-2 spike RBD-His. Briefly: SPR. The note with it: both partners purified. The source holds these as a separate data set.

B1: S-plug3 (designed binder)
chain: SAMEEQAKFFLDKLQHELEDTQYQLLYKALALNKSQQEELQKQYKKTYDEYVTLAKKWAKAASSIPLNSITDEKLYKAMEKTASSPPGC
notes: also called S-plug2 with C-terminal arm PPGC; cysteine-locked S-plug
As to B1, the binding result in data set [1] is given as “binds”. In data set [2], this molecule displayed a Kd of 39.5 ± 1.1 nM.

B2: S-plug (designed binder)
chain: STIEEQAKTFLDKFNHEAEDLFYQSSLASWNYNTNITEENVQNMNNAGDKWSAFLKEQSTLAQMYPLQEIQNQTVKQQLQALQQN
notes: also called prototype S-plug
Consider B2, for which, in data set [3], the “stoichiometry N” value stood at 2. Moreover, the Kd in data set [4] fell in the range of 50 to 200 nM.

B3: S-plug2 (designed binder)
chain: SAMEEQAKFFLDKLQHELEDTQYQLLYKALALNKSQQEELQKQYKKTYDEYVTLAKKWAKAASSIPLNSITDEKLYKAMEKTASS
notes: also called thermo-stabilised S-plug; mutated form of S-plug
As for B3, the “stoichiometry N” value in data set [3] was 2. This molecule also came in with a Kd in data set [2] of 61.7 ± 2.3 nM.
